According to US20230242646A1:

Key:
[1] = biological target: membrane-bound full-length human CD89 on HEK293F cells (human) (UniProt P24071); test: FACS HEK293F-huCD89; non-aggregated serum IgA
[2] = biological target: membrane-bound full-length human CD89 on HEK293F cells (human) (UniProt P24071); test: FACS HEK293F-huCD89; heat-aggregated serum IgA
[3] = biological target: membrane-bound full-length human CD89 on HEK293F cells (human) (UniProt P24071); test: FACS HEK293F-huCD89, 10 ug/mL; competitor PE-A3
[4] = biological target: membrane-bound full-length human CD89 on HEK293F cells (human) (UniProt P24071); test: FACS HEK293F-huCD89, 10 ug/mL; competitor PE-A59
[5] = biological target: membrane-bound full-length human CD89 on HEK293F cells (human) (UniProt P24071); test: FACS HEK293F-huCD89, 10 ug/mL; competitor PE-MIP8a
[6] = biological target: membrane-bound full-length human CD89 on HEK293F cells (human) (UniProt P24071); test: FACS HEK293F-huCD89, titrated Ab; non-aggregated serum IgA
[7] = biological target: membrane-bound full-length human CD89 on HEK293F cells (human) (UniProt P24071); test: FACS HEK293F-huCD89, titrated Ab; heat-aggregated serum IgA
[8] = biological target: membrane-bound full-length human CD89 on HEK293F cells (human) (UniProt P24071); test: FACS, unlabelled antibody before A3-PE on HEK293F-huCD89
[9] = biological target: membrane-bound full-length human CD89 on HEK293F cells (human) (UniProt P24071); test: FACS HEK293F-huCD89, 10 ug/mL; heat-aggregated serum IgA (similar with non-aggregated)
[10] = biological target: membrane-bound full-length human CD89 on HEK293F cells (human) (UniProt P24071); test: FACS, antibody before non-aggregated serum IgA on HEK293F-huCD89; IgA detected
[11] = biological target: membrane-bound full-length human CD89 on HEK293F cells (human) (UniProt P24071); test: FACS, antibody before heat-aggregated serum IgA on HEK293F-huCD89; IgA detected
[12] = biological target: membrane-bound full-length human CD89 on HEK293F cells (human) (UniProt P24071); test: FACS, antibody before non-aggregated serum IgA on HEK293F-huCD89; IgA detected; remark: listed apart in the source
[13] = biological target: membrane-bound full-length human CD89 on HEK293F cells (human) (UniProt P24071); test: FACS, antibody before heat-aggregated serum IgA on HEK293F-huCD89; IgA detected; remark: listed apart in the source
[14] = biological target: membrane-bound full-length human CD89 on HEK293F cells (human) (UniProt P24071); test: FACS, unlabelled antibody before A59-PE on HEK293F-huCD89
[15] = biological target: membrane human CD89 on ex vivo primary human neutrophilic granulocytes or monocytic U937 cells (human) (UniProt P24071)
[16] = biological target: membrane-bound full-length human CD89 on HEK293F cells (human) (UniProt P24071); test: FACS on HEK293F-huCD89
[17] = biological target: recombinant C-terminal polyhistidine-tagged human (extracellular) CD89 (Sino Biological) (human) (UniProt P24071); test: ELISA on coated rhuCD89
[18] = biological target: membrane-bound full-length human CD89 on HEK293F cells (human) (UniProt P24071); test: FACS, unlabelled antibody before MIP8a-PE on HEK293F-huCD89
[19] = biological target: membrane-bound full-length human CD89 on HEK293F cells (human) (UniProt P24071); test: FACS, antibody before serum IgA on HEK293F-huCD89; IgA detected
[20] = biological target: recombinant C-terminal polyhistidine-tagged human (extracellular) CD89 (Sino Biological) (human) (UniProt P24071); test: ELISA, antibody before serum IgA on coated rhuCD89; IgA detected
[21] = biological target: membrane-bound full-length human CD89 on HEK293F cells (human) (UniProt P24071); test: FACS, antibody before secretory IgA on HEK293F-huCD89; IgA detected

mouse anti-human CD89 antibody clone A3 (Santa Cruz Biotechnology)
maximum inhibition of IgA binding [1]: 60%
maximum inhibition of IgA binding [2]: 60%
% blocking of PE-A3 binding [3]: > 90%
% blocking of PE-A59 binding [4]: > 90%
% blocking of PE-MIP8a binding [5]: < 25%
maximum inhibition of IgA binding [6]: 60%
maximum inhibition of IgA binding [7]: 60%
IC50 (read off the curve) [8]: 0.4 µg/mL
% blocking of IgA binding [9]: 60%
IC50 (read off the curve) [10]: 0.4 µg/mL
IC50 (read off the curve) [11]: 0.4 µg/mL
IC50 (read off the curve) [12]: 0.8 µg/mL
IC50 (read off the curve) [13]: 0.7 µg/mL

mouse anti-human CD89 antibody clone A59 (BD Biosciences)
maximum inhibition of IgA binding [1]: 60%
maximum inhibition of IgA binding [2]: 60%
% blocking of PE-A3 binding [3]: > 90%
% blocking of PE-A59 binding [4]: > 90%
% blocking of PE-MIP8a binding [5]: < 25%
maximum inhibition of IgA binding [6]: 60%
maximum inhibition of IgA binding [7]: 60%
IC50 (read off the curve) [14]: 0.6 µg/mL
% blocking of IgA binding [9]: 60%
IC50 (read off the curve) [12]: 1 µg/mL
IC50 (read off the curve) [13]: 1 µg/mL

mouse anti-human CD89 antibody clone MIP8a (BioRad)
IC50 (read off the bars), binding of granulocytes to plate-bound serum IgA [Donor 3] [15]: 0.6 µg/mL
EC50 (read off the curve) [16]: 0.2 µg/mL
EC50 (read off the curve) [17]: 0.02 µg/mL
% blocking of PE-A3 binding [3]: 55%
% blocking of PE-A59 binding [4]: 50%
% blocking of PE-MIP8a binding [5]: > 90%
IC50 (read off the curve) [8]: 0.2 µg/mL
IC50 (read off the curve) [18]: 0.3 µg/mL
IC50 (read off the curve) [19]: 0.2 µg/mL
IC50 (read off the curve) [20]: 0.07 µg/mL
IC50 (read off the curve) [21]: 0.4 µg/mL
IC50 (read off the curve) [10]: 0.2 µg/mL
IC50 (read off the curve) [11]: 0.2 µg/mL
IC50 (read off the curve) [12]: 0.7 µg/mL
IC50 (read off the curve) [13]: 0.7 µg/mL
